This series concerns MS2 coat protein. The series is described as follows: apparent KD of MS2 coat protein; higher = weaker reporter binding. The following applies: Eterna round: R107. In short, it runs like this:
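On-chip transcription from Illumina sequencing clusters produced the designed RNA switches. These were titrated with SNAP-549-labelled MS2 coat protein (twofold steps, 0.7 or 1.5 nM to 3 µM) in 100 mM Tris-HCl pH 7.5, 80 mM KCl, 4 mM MgCl2, with or without constant ligand. The apparent KD given is the per-design median of normalised cluster binding-curve fits.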

[1] abbreviates: input ligand: theophylline 20 uM.
The mark [2] stands for this setting: input ligand: theophylline 2 mM.
Where [3] appears, read: input ligand: tryptophan 2.4 mM.

As to “GUGCUGGUAUCGGCCGCCACUGUAACAUGACAUCCCAGGGCCGACAUGAGGAUCACCCAUGUUAACAGGACCGGGAUAUCAACGA [Riorquen]”, the “apparent KD of MS2 coat protein” value came to 0.0132 µM (input ligand: arginine 13.2 mM), 0.0289 µM under setting [1] and 0.0195 µM under setting [2].
Regarding “GUGGAGACACGAGAUACCAGUCUCUAUAACAUGAGGAUCACCCAUGUAAUGCUCCUCAGGGACCCUUGGCAGCUCAGUAUGAUGA [Exclusion - Theophylline B]”, the “apparent KD of MS2 coat protein” value (input ligand: arginine 13.2 mM) came to 0.0348 µM, the “apparent KD of MS2 coat protein” value under setting [1] is 0.0545 µM and the “apparent KD of MS2 coat protein” value under setting [3] came out at 0.0357 µM.
The corresponding values for “GUUACAUGGCAAGCAUGUAUAUGGAUAGAUACCAGUUGAUAUUAAGACCCUUGGCAGCUGAGUACAUGAGGAUCACCCAUGUAAG [Theo A Ex t3]” are 0.0284 µM, 0.0469 µM and 0.0519 µM.
Take “GUUAUAUGAAAACAUAUAACAGUGGGUGAACGAGGACCGGUACGGCCGCCACUCGGACAUGAGGAUCACCCAUGUCCAUGUGAAA [AstrosExyTryA#6]”: the “apparent KD of MS2 coat protein” value by setting is: (input ligand: arginine 13.2 mM) 0.0152 µM; under setting [1], 0.0174 µM; under setting [2], 0.022 µM.
For the sequence “GUUCGUCCUACGGCCGCCACUAAAACACAUGAGGAUCACCCAUGUUAGUAUCCUGGCUGGUGUGAUAGGACCGGGUAGGGAAGAA [theeternabot_exclusion_MS2_Trp_B_14]”, the “apparent KD of MS2 coat protein” value runs as follows: (input ligand: arginine 13.2 mM) 0.011 µM; under setting [1], 0.0136 µM; under setting [2], 0.0108 µM.
Take “GUUGGUUUGCGAAGGAGCGGGUAUGUUGUCUACUGGAUCCUAACAUGAGGAUCACCCAUGUCCCAGGUAGGUCGCGCGGGCUUUG [12.aB]”: the “apparent KD of MS2 coat protein” value by setting is: (input ligand: arginine 13.2 mM) 0.0341 µM; (input ligand: none) 0.0283 µM; under setting [1], 0.0563 µM; under setting [2], 0.0522 µM; under setting [3], 0.0382 µM.
As to “GUUGUAUACUCGGCCGCCACUGAGAGAGUCAUGUAAACAUGAGGAUCACCCAUGUAAUAUAUAUACAGGACCGGGAGUAUGGUAA [4.F]”, the “apparent KD of MS2 coat protein” value (input ligand: arginine 13.2 mM) came out at 0.0121 µM, the “apparent KD of MS2 coat protein” value under setting [1] is 0.0162 µM and the “apparent KD of MS2 coat protein” value under setting [2] is 0.0154 µM.
For “UAAAACAUGAGGAUCACCCAUGUAAAUGAUACCAGAGUGAUGAUCCUCCCUUGGCAGCAUAACGCUGAUUGGAAACAAUCAGCGA [Mat - Same State Theophlline A - Mod of Eli - D23]”, the “apparent KD of MS2 coat protein” value (input ligand: arginine 13.2 mM) was determined as 0.0288 µM, the “apparent KD of MS2 coat protein” value under setting [1] worked out at 0.144 µM and the “apparent KD of MS2 coat protein” value under setting [3] was 0.0758 µM.
As to “UAAAUAAUCUGGGUGUAGGUAAUAACAGAUACCAGCCAGAUAACUGGCCCUUGGCAGCUGAUAACAUGAGGAUCACCCAUGUAAA [Mat - Same State Theophlline A - Mod of Eli - D20]”, the “apparent KD of MS2 coat protein” value is, setting by setting: (input ligand: arginine 13.2 mM) 0.047 µM; under setting [1], 0.114 µM; under setting [3], 0.0556 µM.
Turning to “UAACAUGAGGAUCACCCAUGUUUAGAUGAACGAGGACCGGUACGGCCGCCACUCGAUAAGUGGAAGAAACGAGGGAUUGUAUGAU [Same State Trp A GF2]”, the “apparent KD of MS2 coat protein” value is, setting by setting: (input ligand: arginine 13.2 mM) 0.0141 µM; (input ligand: none) 0.0127 µM; under setting [1], 0.0151 µM; under setting [2], 0.0188 µM; under setting [3], 0.0183 µM.
Take “UAACAUGAGGAUCACCCAUGUUUGAAGGAACGAGGACCGGUACGGCCGCCACUCGACGAGUGGAUGAGAAGUGGGAUAGUGUGCU [Same State Trp A GF7]”: the “apparent KD of MS2 coat protein” value is 0.0153 µM (input ligand: arginine 13.2 mM), 0.0182 µM under setting [1] and 0.0143 µM under setting [2].
As to “UAAGUUAGGGCGGCCGCCACUCGAACAUGAGGAUCACCCAUGUAAAUUAAUUAAAGGACAUGAAUGAGGACCGGGCCAAGUUAGA [Same State - Tryptophan B / A]”, the “apparent KD of MS2 coat protein” value reads like this: (input ligand: arginine 13.2 mM) 0.0139 µM; under setting [1], 0.0202 µM; under setting [2], 0.0152 µM.
With “UAAUAAAUAAAUCCAAGGUGAAGGUCAGAUACCAGCCAGAUAACUGGCCCUUGGCAGCUGAAUAAUCAUGAGGAUCACCCAUGAA [TheoAS 25 #OpenEnded #MS2Late #AlternativeMS2]”, the “apparent KD of MS2 coat protein” value by setting is: (input ligand: arginine 13.2 mM) 0.0172 µM; (input ligand: none) 0.0228 µM; under setting [1], 0.0247 µM; under setting [2], 0.0639 µM; under setting [3], 0.0195 µM.
With “UACAAACAUGAGGAUCACCCAUGUAGUGAUACCAGCAUAACAGAUUGCCCUUGGCAGCACCGGUUUGUACUCAAACGAAGUACGG [theeternabot_sameState_MS2_Theo_A_36]”, the “apparent KD of MS2 coat protein” value reads like this: (input ligand: arginine 13.2 mM) 0.056 µM; under setting [1], 0.0862 µM; under setting [3], 0.0529 µM.
The corresponding values for “UACAUGAGGAUCACCCAUGUAUAGAGGGAUACCAGUGUCAGUGAGCACCCUUGGCAGCCCGCGAACAAUGGGUGCGCUAAAUAGU [#19 Exclusion-TheophyllineA]” are 0.0232 µM, 0.0753 µM and 0.0324 µM.
For “UACAUGAGGAUCACCCAUGUAUGAAUGGAUACCAGAUAAAAUAAGGUCCCUUGGCAGCUAGUGAAUCGAGGGUGGGUAUCAUGAU [#13 Exclusion-TheophyllineA]”, the “apparent KD of MS2 coat protein” value by setting is: (input ligand: arginine 13.2 mM) 0.0106 µM; under setting [1], 0.0128 µM; under setting [3], 0.0102 µM.
As to “UACAUGAGGAUCACCCAUGUGGCGGAUGAUACCAGUAUGGUGACAUACCCUUGGCAGCAUGCUAUGAGGAUCACCCAUGUGUGCA [EThA NP+V+V2 #11 DOUBLE]”, the “apparent KD of MS2 coat protein” value (input ligand: arginine 13.2 mM) amounted to 0.0563 µM, the “apparent KD of MS2 coat protein” value under setting [1] amounted to 0.0849 µM and the “apparent KD of MS2 coat protein” value under setting [3] amounted to 0.0707 µM.
With “UACCGAGAGGGAAGGAGCGCGAUAACAUAACAUGAGGAUCACCCAUGUAAGAAAUUAAUCAUGCAGGUAGGUCGCCCAAGCGGAU [Same State Arginine B GF 2]”, the “apparent KD of MS2 coat protein” value is, setting by setting: (input ligand: arginine 13.2 mM) 0.0167 µM; (input ligand: none) 0.0154 µM; under setting [1], 0.0215 µM; under setting [2], 0.0158 µM; under setting [3], 0.0147 µM.
As to “UACUUGCUGACGGCCGCCACUAGAACAUGAGGAUCACCCAUGUAAGUGGUUGGUUCAUGGGUGACUAGGACCGGGUCAGCAAGAU [(Trp1)-(Ms2)-(T)'-(M)'-(Trp2)_Design19]”, the “apparent KD of MS2 coat protein” value (input ligand: arginine 13.2 mM) turned out to be 0.0269 µM, the “apparent KD of MS2 coat protein” value under setting [1] came to 0.0479 µM and the “apparent KD of MS2 coat protein” value under setting [2] turned out to be 0.0377 µM.
